The values that follow come from US20180155693A1, “Method of Differentiating Stem Cells” (BioTime, Inc., priority 2008, published 2018).

Data set [1] relates to human embryonic stem cells. Nature of the data set: Notch signaling inhibition, C-peptide positive cells by immunohistochemistry. It counts as cell-based. Conditions: added day 9-18 of differentiation; cells fixed at day 21; FIG. 7. The method, then: In order to increase the percentage of Pdx-1 and C-peptide producing cells, the cells from Example 1 were rinsed twice with PBS and then cultured in a culture medium (2% 8-27, 1×Glutamax, 1×NEAA, 1×13-mercaptoethanol in RPMI 1640 (RPMI)) comprising 50 ng/ml Activin A and 50 ng/ml BMP4 for 3 days. The medium was then changed to a medium comprising 50 ng/ml Activin A in RPMI and incubated for 3 days. The cells were then cultured in a medium comprising 3 μM RA, 50 ng/ml FGF2, 1 μM SANT-1 and 10 mM Nicotinamide in RPMI for 6 days with the medium changed every 2-3 days. Notch signaling in the cells was then inhibited by the addition of Gamma Secretase Inhibitor X (DAPT) from day 9-18 of differentiation.
Plate-based immunohistochemistry was performed using standard techniques. Cells were fixed in 4% PFA in PBS for 30 min, washed with PBS and incubated in blocking solution consisting of 10% FCS and 0.1% Triton X-100 in PBS for 1 hr. Cells were incubated overnight at 4 ° C. with the primary antibody diluted in blocking solution. Examples of primary antibodies and their dilutions used include: guinea pig anti-Pdx-1 (1:10,000), rabbit anti-C-peptide (Linea, 1:1,000), goat anti-Sox17 (R & D systems, 1:100), goat anti-FoxA2 (R & D systems 1:100) and mouse anti-Oct4 (Santacruz, 1:100). […]

For data set [2] the following is noted: cited from earlier work.
The test system of data set [3] is ESI035, ESI049, ESI051 and HES-3. Description: Effect of early growth factors, Pdx-1 RT-PCR. In kind it is cell-based, human. To be noted: day 18; early factors per Table 2; compared to cells only treated with Activin A; FIG. 5. An excerpt:
The effect of early differentiation factors was examined by differentiating cell lines ESI035, ESI049, ESI051 and HES-3 in 24-well plates in six varying cultures and harvesting them for analysis using immunohistochemistry and Quantitative RT-PCR analysis on day 18 and day 30 of differentiation. The culture medium (1×Glutamax, 1×NEAA, 1×13-mercaptoethanol in RPMI 1640 (RPMI)) was supplemented with other factors summarized in table 2 below. The medium was changed every 2-3 days.
As the effect of FGF2 as an early growth factor varied depending on the cell line used, no conclusion was derived with regard to the effect of an early dose of FGF2 on the expression of Pdx-1.
Total RNA from hESC at various stages of differentiation was isolated using the Qiagen RNeasy kit […] according to the manufacturer's instructions. RNA was quantified by UV absorption. 1 to 5 μg of RNA was DNase I treated and converted to cDNA using M-MuIV reverse transcriptase (New England Biolabs) using random hexamer primers according to the manufacturer's instructions. Quantitative PCR (RT-PCR) was performed according to the manufacturer's instructions using a BioRad iCycler with approximately 50 ng cDNA per reaction containing 250 nM of each primer and 1×SYBR green master mix (Bio-Rad) and analyzed by Bio-RAD thermocycler.

In data set [4] the test system is mix of cell lines, ESI017 and ESI035. Nature of the data set: Definitive endoderm time course, real-time PCR of Sox17 and FoxA2. In kind it is cell-based, human. The method, then: The effects of Activin A with and without BMP4 on the expression of markers of definitive endoderm were examined. Activin A and BMP4 were added to a mix of cell lines, ESI017 and ESI035, of Example 1 after the cells had been washed twice with PBS. Four groups of cells were then cultured in four different conditions:
1) 50 ng/ml Activin A and 50 ng/ml BMP4 in a culture medium (2% B-27, 1×Glutamax, 1×NEAA, 1×J3-mercaptoethanol in RPMI 1640 (RPMI)) for 3 days followed by treatment with Activin A (50 ng/ml) in RPMI.
2) 50 ng/ml Activin A and 50 ng/ml BMP4 in RPMI for about 6 hours followed by treatment with Activin A (50 ng/ml) in RPMI.
3) 50 ng/ml Activin A in RPMI.
4) 10% KOSR in RPMI (negative control).
The cells were cultured continuously and a sample harvested daily. The medium was changed every 2-3 days. Real-time PCR was performed as described in Example 9.
Total RNA from hESC at various stages of differentiation was isolated using the Qiagen RNeasy kit […] according to the manufacturer's instructions. RNA was quantified by UV absorption. […] Quantitative PCR (RT-PCR) was performed according to the manufacturer's instructions using a BioRad iCycler with approximately 50 ng cDNA per reaction containing 250 nM of each primer and 1×SYBR green master mix (Bio-Rad) and analyzed by Bio-RAD thermocycler.
For orientation: Real-time PCR tracks product formation cycle by cycle.

Data set [5] concerns ESI035, ESI049 and ESI051. Description: Screen of maturation growth factors, immunohistochemistry for C-peptide and Pdx-1. In kind it is cell-based, human. Conditions: day 18. An excerpt:
The effect of maturation growth factors was examined by differentiating cell lines ESI035, ESI049 and ES1051 from Example 1 in 96-well plates in two varying cultures and harvesting them for analysis using immunohistochemistry on day 18 of differentiation. The culture medium (1×Glutamax, 1×NEAA, 1×f3-mercaptoethanol in RPMI 1640 (RPMI)) were supplemented with other factors summarized in Table 4 below. The notable changes to the differentiation protocol used here compared to that used in Example 4 were the shortened period of endoderm induction and the addition of nicotinamide from day 6 of differentiation. The medium was changed every 2-3 days. A list of growth factors (G.F) were tested according to the protocol described in Table 4. […] There were added at two time points. […] None of the added growth factors had any consistent effect on cell viability, C-peptide expression and Pdx-1 expression. Plate-based immunohistochemistry was performed using standard techniques. Cells were fixed in 4% PFA in PBS for 30 min, washed with PBS and incubated in blocking solution consisting of 10% FCS and 0.1% Triton X-100 in PBS for 1 hr. Cells were incubated overnight at 4 ° C. with the primary antibody diluted in blocking solution. […]

In the case of `CC(C)C[C@H](NC(=O)[C@H](Cc1ccccc1)C[C@@H](O)[C@H](Cc1ccccc1)NC(=O)OC(C)(C)C)C(=O)N[C@@H](Cc1ccccc1)C(N)=O` [Gamma Secretase Inhibitor X], the “Concentration resulting in a significant number of C-peptide positive cells” value in data set [1] is reported as “over 10 μM”.
As to C-peptide, in data set [2], the half-life entry is reported as “about 30 minutes”.
Regarding FGF2: member of the FGF family, the “Pdx-1 expression (RT-PCR)” value in data set [3] was “did not result in the same effect on Pdx-1 expression in all four cell lines”.

B1: Activin A: protein of the TGF-superfamily (protein, UniProt P08476 311-426, looked up)
Inhibin beta A chain: GLECDGKVNICCKKQFFVSFKDIGWNDWIIAPSGYHANYCEGECPSHIAGTSGSSLSFHSTVINHYRMRGHSPFANLKSCCVPTKLRPMSMLYYDDGQNIIKKDIQNMIVEECGCS
modifications: Inhibin beta A chain
notes: protein of the TGF-superfamily
Take B1: the “expression of Sox17 mRNA” value in data set [4] (50 ng/ml each in RPMI, daily samples, FIG. 2A) is “weak expression of Sox17 until day 6”.

B2: BMP4: secreted polypeptide belonging to the BMP subgroup of the TGF-superfamily (protein, UniProt P12644 293-408, looked up)
Bone morphogenetic protein 4: SPKHHSQRARKKNKNCRRHSLYVDFSDVGWNDWIVAPPGYQAFYCHGDCPFPLADHLNSTNHAIVQTLVNSVNSSIPKACCVPTELSAISMLYLDEYDKVVLKNYQEMVVEGCGCR
Regarding B2, the FoxA2 expression result in data set [4] (addition of 50 ng/ml BMP4 to Activin A, up to day 10, FIG. 2B) is recorded as “did not appear to greatly affect FoxA2 expression”. The Pdx-1 positive cells entry in data set [5] (BMP4 treated plates compared to plates not BMP4 treated) is “more Pdx-1 positive cells”. Also, the “frequency of C-peptide positive cells” value in data set [5] (initially cultured in medium comprising BMP4 vs Activin only) is given as “higher frequency of C-peptide positive cells”.
